This note sets out measurements from article PMC4753445.

In the assay the target is AKT1 substrate 1 (AKT1S1), Flag-tagged (UniProt Q96B36). In words: co-IP; 14-3-3 co-expressed with AKT1S1 (or 2SE) in HEK293T cells, with or without overexpressed PKM2 or PKM2 K270M; 14-3-3 co-immunoprecipitated with AKT1S1 detected by blot.

A value given as a limit tells only on which side of the number the result lay.

14-3-3, sequence (P63104 whole entry): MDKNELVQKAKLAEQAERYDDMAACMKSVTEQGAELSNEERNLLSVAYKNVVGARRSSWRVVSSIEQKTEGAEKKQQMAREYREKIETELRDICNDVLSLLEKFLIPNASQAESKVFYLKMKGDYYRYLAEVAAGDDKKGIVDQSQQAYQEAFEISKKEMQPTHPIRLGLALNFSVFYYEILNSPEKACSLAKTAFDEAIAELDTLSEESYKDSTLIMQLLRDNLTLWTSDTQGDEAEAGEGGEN

“14-3-3 (from UniProt P63104 1-245) (natural protein)” had a fold increase of the co-precipitate with PKM2 overexpressed against without PKM2 greater than 3 fold.
